# Source: patent publication US20210338158A1, “MEASUREMENT SYSTEM” (WearOptimo Pty Ltd, published 2021)
# Experiments:
# bovine serum albumin = bovine serum albumin (Bos taurus, UniProt P02769 P02769:25-607); assay: AC voltammetry specificity control; 50 ng/mL BSA in PBS gave little change on aptamer-functionalised gold disk electrode; conditions: label: methylene blue
# [1] = biological target: recombinant troponin I (cardiac troponin I) (UniProt P19429 P19429:2-210); assay: AC voltammetry; MB redox current decreases on troponin I exposure; aptamer immobilised on gold microstructures in perfused pig skin (600 ng/mL perfusate) and on gold disk electrode in 150 mM PBS pH 7.4; conditions: label: methylene blue
# recombinant troponin I (cardiac troponin I), sequence (P19429 2-210, one chain of several): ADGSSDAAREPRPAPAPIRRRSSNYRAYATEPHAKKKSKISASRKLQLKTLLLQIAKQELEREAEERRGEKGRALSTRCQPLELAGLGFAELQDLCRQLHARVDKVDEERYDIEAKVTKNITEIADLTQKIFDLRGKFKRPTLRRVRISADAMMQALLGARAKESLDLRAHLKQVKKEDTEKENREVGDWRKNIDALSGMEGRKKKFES
# bovine serum albumin, sequence (P02769 25-607, one chain of several): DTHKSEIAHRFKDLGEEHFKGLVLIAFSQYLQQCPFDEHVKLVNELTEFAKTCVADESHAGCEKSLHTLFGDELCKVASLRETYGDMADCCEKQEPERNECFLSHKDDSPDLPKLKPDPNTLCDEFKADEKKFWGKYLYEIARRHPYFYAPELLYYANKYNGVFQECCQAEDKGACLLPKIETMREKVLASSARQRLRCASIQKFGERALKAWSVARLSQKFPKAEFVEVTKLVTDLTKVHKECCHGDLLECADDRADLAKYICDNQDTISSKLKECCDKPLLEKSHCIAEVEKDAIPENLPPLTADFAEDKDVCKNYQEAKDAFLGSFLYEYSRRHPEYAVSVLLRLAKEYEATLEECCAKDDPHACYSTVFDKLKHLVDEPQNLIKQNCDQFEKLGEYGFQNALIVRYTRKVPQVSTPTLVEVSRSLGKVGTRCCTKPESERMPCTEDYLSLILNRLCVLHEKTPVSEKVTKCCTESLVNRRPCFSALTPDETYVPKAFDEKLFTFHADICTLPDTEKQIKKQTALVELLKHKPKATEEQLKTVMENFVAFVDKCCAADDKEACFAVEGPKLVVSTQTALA
binder,measurement,setting,value
"troponin I aptamer (thiol/methylene blue) (ssDNA, 5'-SH-(CH2)6, 3'-methylene blue) DNA: AGTCTCCGCTGTCCTCCCGATGCACTTGACGTATGTCTCACTTTCTTTTCATTGACATGGGATGACGCCGTGACTG",binding result,bovine serum albumin,no binding
same,binding result,[1],binds
